Results reported in EP4682169A1.

Legend:
[1] = target: human Claudin18.2 expressed on cells (human) (UniProt P56856); assay: flow cytometry on 293FT CLDN18.2-Luc cells, APC anti-mouse IgG Fc
[2] = target: Human Claudin-18.2 protein (human) (UniProt P56856); assay: SPR (Biacore 8K), antibody captured on Protein A, Claudin-18.2 protein as analyte

IMAB-mIgG2aFc (antibody)
EC50 [1]: 0.07 nM
Kd [2]: 5.65 nM
koff [2]: 0.000753 s⁻¹
kon [2]: 133000 M⁻¹ s⁻¹
